Laboratory results: paper PMC3714108
Read-outs that look alike come from different tables or passages of the source.

T1: CcrB (Staphylococcus aureus 923 (USA300, …, UniProt Q9XB94 1-542))
T1 sequence: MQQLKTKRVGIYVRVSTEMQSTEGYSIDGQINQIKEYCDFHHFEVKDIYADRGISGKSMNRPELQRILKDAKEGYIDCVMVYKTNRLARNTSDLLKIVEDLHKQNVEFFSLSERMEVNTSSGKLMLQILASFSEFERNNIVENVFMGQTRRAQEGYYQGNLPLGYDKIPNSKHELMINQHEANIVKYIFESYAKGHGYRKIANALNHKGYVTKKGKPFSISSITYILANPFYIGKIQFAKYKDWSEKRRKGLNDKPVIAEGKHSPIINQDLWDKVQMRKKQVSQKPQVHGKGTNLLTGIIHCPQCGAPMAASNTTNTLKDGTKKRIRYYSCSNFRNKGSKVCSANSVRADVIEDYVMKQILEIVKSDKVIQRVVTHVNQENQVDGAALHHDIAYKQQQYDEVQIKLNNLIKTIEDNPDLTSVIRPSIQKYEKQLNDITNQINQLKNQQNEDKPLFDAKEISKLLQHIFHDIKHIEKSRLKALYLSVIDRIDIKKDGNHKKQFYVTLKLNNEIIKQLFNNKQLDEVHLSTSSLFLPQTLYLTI

T2: CcrA (Staphylococcus aureus 923 (USA300, …, UniProt Q84BN8 1-449))
T2 sequence: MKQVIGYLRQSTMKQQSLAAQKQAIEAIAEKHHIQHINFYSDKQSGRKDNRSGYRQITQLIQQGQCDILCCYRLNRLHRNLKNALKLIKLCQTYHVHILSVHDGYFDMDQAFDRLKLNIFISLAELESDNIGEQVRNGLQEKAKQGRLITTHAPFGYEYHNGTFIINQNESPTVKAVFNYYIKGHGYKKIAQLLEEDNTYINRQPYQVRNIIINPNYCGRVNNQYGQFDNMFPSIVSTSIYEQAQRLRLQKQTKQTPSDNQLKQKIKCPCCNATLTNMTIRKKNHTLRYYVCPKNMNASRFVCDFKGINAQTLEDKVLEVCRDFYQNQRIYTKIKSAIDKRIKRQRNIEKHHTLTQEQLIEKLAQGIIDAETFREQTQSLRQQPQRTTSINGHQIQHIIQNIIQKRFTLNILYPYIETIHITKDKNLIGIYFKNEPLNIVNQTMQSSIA


What was measured:
Assay in all cases: EMSA
CcrB [1] = target: T1, CcrB
CcrA [2] = target: T2, CcrA
CcrA [3] = target: T2, CcrA; remark: listed apart in the source
CcrA [4] = target: T2, CcrA; remark: listed apart in the source
CcrB [5] = target: T1, CcrB; remark: listed apart in the source
CcrA [6] = target: T2, CcrA; remark: listed apart in the source

Binder	Kd (CcrB [1]) [nM]	binding result (CcrA [2])	binding result (CcrA [3])	also measured
attSCC68 (dsDNA) DNA 1: TTATTTTTTCAAAAACCGCATCATTAACTGATAAGCAGAAGCTTATCATAAATGATGCGGTTTTTTCA DNA 2: TGAAAAAACCGCATCATTTATGATAAGCTTCTGCTTATCAGTTAATGATGCGGTTTTTGAAAAAATAA	~14.1	no binding		
attL58 (dsDNA) DNA 1: TACAGAGCATTTAAGATTATGCGAGGAGAAGCTTATCATAAATGATGCGGTTTTTTCA DNA 2: TGAAAAAACCGCATCATTTATGATAAGCTTCTCCTCGCATAATCTTAAATGCTCTGTA	~14.1		binds	
SCC half site 36 (dsDNA) DNA 1: ATTTTTCAAAAACCGCATCATTAACTGATAAGCAGA DNA 2: TCTGCTTATCAGTTAATGATGCGGTTTTTGAAAAAT				binding result (CcrA [4]): no binding; binding result (CcrB [5]): binds
attB62 (dsDNA) DNA 1: TACAGAGCATTTAAGATTATGCGAGGAGAGGCGTATCATAAGTAAAACTAAAAAATTCTGTA DNA 2: TACAGAATTTTTTAGTTTTACTTATGATACGCCTCTCCTCGCATAATCTTAAATGCTCTGTA	~14.1		binds	
attR72 (dsDNA) DNA 1: TTAATTTTTCAAAAACCGCATCATTAACTGATAAGCAGAGGCGTATCATAAGTAAAACTAAAAAATTCTGTA DNA 2: TACAGAATTTTTTAGTTTTACTTATGATACGCCTCTGCTTATCAGTTAATGATGCGGTTTTTGAAAAATTAA	~14.1	no binding		
attB ns half site 62 (dsDNA) DNA 1: TACAGAGCATTTAAGATTATGCGAGGAGATGGCTGAGAACACCCCTTGTGAGGTACTTCATG DNA 2: CATGAAGTACCTCACAAGGGGTGTTCTCAGCCATCTCCTCGCATAATCTTAAATGCTCTGTA				binding result (CcrA [6]): binds
